In the supplement of paper PMC10567573:

B1: STK38L (parent)
chain: RQLAYSTVGTPDYIAPEVFMQTGY
B2: HDAC6 (parent)
chain: KMKTRELHRESSNFDSIYICPSTF

Variants of: B1
Assay: protein stability index of a GFP-peptide fusion (GPS, HEK-293T) (PSI 1-6); higher = more stable
Settings: c terminus: a fixed tail appended
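Further: lentivirally expressed fusions sorted by FACS into six bins by GFP to DsRed ratio, PSI derived from sequencing read proportions per bin multiplied by bin number.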

Protein stability index, by site and new letter:
Y24: Q 3.53 | K 3.38 | G 3.43 | I 2.63 | N 3.35 | M 2.67 | E 4.54 | L 2.44 | H 3.26 | A 3.35 | P 3.25 | D 4.18 | F 2.19 | W 2.33 | R 3.06 | T 3.42
G23: Q 2.28 | L 2.28 | V 1.81 | I 1.99 | M 1.63 | R 2.83 | Y 1.86 | K 2.59 | W 1.6 | T 2.06 | N 2.57 | C 1.6 | F 1.52 | S 2.5 | E 2.5 | D 2.83 | P 2.35 | A 2.34 | H 2.16
T22: S 2.77 | V 1.68 | Y 2.47 | W 1.36

Variants of: B2
Assay: as above
Settings: c terminus: a fixed tail appended

Protein stability index: each site, then its substitutions
T4: Y 2 | R 2.41 | W 2.19
R9: V 2.85 | Y 2.09 | P 2.45 | Q 2.58 | D 2.45 | E 2.77 | F 1.39 | K 2.8
R5: Y 1.8 | V 2.27 | C 1.91 | D 2.62 | H 2.88
H8: Q 2.92 | L 1.97 | P 2.56 | V 2.6
S11: Y 1.98 | P 2.13 | N 2.3 | H 3.04 | A 1.87 | K 2.72
T23: S 2.59 | P 2.61 | H 2.28 | D 2.56 | A 2.16
M2: F 2.04 | W 2.21 | Y 2.11 | A 3.17 | T 2.59 | P 2.96 | Q 3.52
F14: L 2.41 | Y 1.78 | G 4.12 | T 3.11 | H 2.88
D15: M 1.92 | K 1.79 | T 1.9 | V 2.11 | F 2.02 | Y 1.63
P21: S 1.74 | G 1.95
L7: Q 2.72 | P 2.72 | D 2.73 | M 1.46 | T 2.77
S16: E 3.02 | A 1.88 | L 1.74 | F 2.08 | G 2.14 | N 1.31 | Q 1.91 | H 1.99
F24: G 3.15 | R 2.98 | W 2.65
I19: T 2.25 | G 2.91 | C 2.34 | Y 2.16 | F 2.81 | N 3.22 | V 2.8
E6: T 3.12 | N 2.32 | Y 1.72
C20: F 2.21 | D 2.54 | R 2.61 | L 2.2
K1: C 1.7 | H 1.9 | I 1.86 | T 2.14 | A 2.28 | L 1.83
Y18: Q 2.96 | T 3.32 | S 2.72 | D 3.8 | W 2.38 | E 3.45 | P 3.33
E10: T 2.83 | Q 1.78 | R 2.1 | C 2.18 | M 2.62 | D 2.03 | N 2.98
S12: K 2.74 | W 2.17 | A 2.34 | C 1.89 | E 3.25 | Q 2.54 | D 2.29
N13: L 1.74 | S 1.97 | P 2.49 | F 1.45
S22: Y 1.98 | H 2.09 | C 1.85 | G 2.06 | F 2.19 | R 1.83 | I 1.65 | K 3.33
K3: N 2.32 | F 2.1 | P 2.15
I17: R 2.97 | W 2.06 | H 3.15 | Y 2.11 | V 2.27
